# B1: hCT1: Recombinant human CT1 protein; 201 amino acid sequence, GenBank Accession Nos AAD12173 and AAA85229 (human) (protein, UniProt Q16619 1-201, looked up)
# Cardiotrophin-1: MSRREGSLEDPQTDSSVSLLPHLEAKIRQTHSLAHLLTKYAEQLLQEYVQLQGDPFGLPSFSPPRLPVAGLSAPAPSHAGLPVHERLRLDAAALAALPPLLDAVCRRQAELNPRAPRLLRRLEDAARQARALGAAVEALLAALGAANRGPRAEPPAATASAASATGVFPAKVLGLRVCGLYREWLSRTEGDLGQLLPGGSA
# Tests used:
# [1] = tested on: rats; test: M-mode ECHO after 2 weeks of osmotic minipump delivery in rats; format: in vivo, rat; conditions: hCT1 6 μg/kg/hr
# Procedure: FIGS. 3A, 3B, and 3C. […] Arrows (in upper panels) point to myocardial wall (RVLW). Dotted lines (in lower panels) show inner ventricle chambers.
# CT-1 was tested in vivo to determine whether its administration would induce a myocardial adaptive remodeling characteristic of physiologic compensation (FIGS. 3A, 3B, and 3C). Osmotic minipumps containing PBS control (Ctrl) or hCT1 (6 μg/kg/hr) or Isoproterenol (ISO, 1 mg/kg/day) were implanted subcutaneously in rats. ISO is a beta-adrenergic receptor agonist and continuous infusion with ISO in rats is known to induce pathological cardiac hypertrophy and cardiomyocyte damage (in both the right and left ventricles) which progresses to heart failure (Morisco et al (2001) J Mol Cell Cardiol 33:561-573 and Grimm et al (1998) Cardiovascular Research 37:91-100). After 2 weeks of treatment, M-mode ECHO analysis was used to assess myocardial structure/function (FIG. 3A). In this model, an increased right ventricle lateral wall (RVLW) thickness indicates the presence of myocardiocytes growth, and an increased ratio of the right to left ventricle internal diameters (RVID/LVID) is an indicator of pathologic hypertrophy. An increased RVLW thickness but constant or reduced RVID:LVID ratio is an indicator of adaptive compensatory RV remodeling. Both hCT1 and ISO induced a significant increase in RVLW thickness (12% and 32% fold increase, respectively) compared to control rats (n=3; * and **, P<0.05). […] An in vivo growth reversal analysis was also conducted. Following a 2 week delivery of CT-1 protein (6 μg/kg/hr) or PE (10 mg/kg/day) as the pathologic control in this case, animals were then assessed for cardiac structure/function at a 6 week follow-on period. […] Collectively, these studies support the contention that CT-1 elicits a reversible physiologic cardiac adaptive compensation.
# [2] = tested on: cardiomyocytes
# Procedure: FIG. 7B Quantitation of cell viability analysis as shown in (A). FIG. 7C Quantification of PI cell viability FACS analysis following a 24 hrs treatment of cardiomyocytes with H2O2 in the presence or absence of hCT1. Pre-treatment with PI3K inhibitor (LY294002, 50 μM) before H2O2 was also tested.
# Cardiomyocytes were treated with control serum-free media or with H2O2 (300 μM, 1 hr) to induce cell death in the presence or absence of hCT1 (0.5 nM). After 24 hrs, cells were incubated with the cell viability marker Propidium Iodide (PI) (1 μg/mL) and analyzed by FACS (Ex: 535 nm, Em: 617 nm) for viable cells; i.e. cells inside the gated region of the side scatter (SS) versus PI plot (FIG. 7A). […] The PI3K pathway is a critical feature of physiological cardiac adaptive compensation and is a key protective feature distinguishing it from pathological adaptive compensation. Therefore, cardiomyocytes were pre-treated with a PI3K inhibitor (LY294002, 50 μM) before CT-1/H2O2 treatment.
# [3] = tested on: NF-κB; test: NF-κB luciferase reporter in primary neonatal cardiomyocytes; format: cell-based; conditions: hCT1 0.5 nM
# Procedure: FIGS. 6A, 6B, and 6C. Stimulation with hCT1 causes sustained activation of NF-κB and Stat3 with limited activation of Mef2, as well as limited Nfat activation; the latter two indices are distinct expression patterns from pathologic hypertrophic stimulation. FIG. 6A Primary neonatal cardiomyocytes were transfected with luciferase reporter plasmids (NF-κB or Mef2), as indicators of hypertrophic activity. Luciferase activity was measured after treatments for 24 hrs with: hCT1 (0.5 nM), PE (100 μM), or procaspase 3 activating compound 1, PAC-1 (25 μM) (left). Treatments at early timepoints (30 min, 1 hr, and 3 hr) were also conducted for hCT1 (right). FIG. 6B Primary neonatal cardiomyocytes were transfected with a luciferase reporter plasmid for Stat3. Luciferase activity was measured after treatments for 24 hrs with: hCT1 (0.5 nM), PE (100 μM), or procaspase 3 activating compound 1, PAC-1 (25 μM) (left) and at earlier time points (right). […] Luciferase activity was measured after treatments for 24 hrs with: hCT1 (0.5 nM), PE (100 μM), or procaspase 3 activating compound 1, PAC-1 (25 μM) (left) and at earlier time points (right)
# The signaling pathways that CT-1 engages in mediating physiologic adaptive compensatory remodeling were examined. […] Primary neonatal cardiomyocytes were transfected with luciferase reporter plasmids (NF-κB and Mef2) to be used as a read out of transcriptional activity. […]
molecule,measurement,setting,value
B1,"RVID/LVID ratio, in words",[1],did not develop this pathologic state of cardiac hypertrophy
same,increase in RVLW thickness compared to control rats,"[1]; ISO 1 mg/kg/day, subcutaneous minipump",12 % fold increase
same,viability improved vs. H2O2,[2]; H2O2 in the presence of hCT1 (FIG. 7C),154%
same,increase in viability upon pre-treatment,"[2]; hCT1 0.5 nM, 1 hour H2O2 300 μM, viability at 24 hours (FIG. 7B)",~34%
same,NF-κB luciferase activity at 1 hr and 3 hr,[3],significant activation
same,NF-κB transcriptional activity at 24 hrs,[3],sustained

# — patent US9962427B2, “Treatment of right ventricular dysfunction due to pressure overload” (OTTAWA HOSPITAL RESEARCH INSTITUTE, priority 2016, dated 2018)
